Source: patent US20240360176

System: pNaKtide

Substance: Src kinase (mouse, endogenous in the liver of C57BL/6J mice)
- Src phosphorylation in mouse liver, ratio pSrc/pSrc+cSrc by Western blot: Src phosphorylation peaked in the HFD groups at week 20, with paucity on pSrc peak in the pNaKtide and Exercise groups
